Source: patent US20220228157A1, “GENE EDITING IN DIVERSE BACTERIA” (priority 2019, published 2022)
Where two headings read alike, the source gives them in different places.

What was measured:
[1] = system: Pseudomonas aeruginosa PAO1; assay: Recombineering efficiency by selective plating; assay type: cell-based
Source text: To test the activity of PapRecT and CspRecT in these three organisms, the broad-host-range pORTMAGE system (Nyerges et al., Proc. Natl. Acad. Sci. U.S.A. 113, 2502-2507 (2016)) was built on as described above. For experiments in E. coli PapRecT or CspRecT was subcloned in place of Redβ into pORTMAGE311B (Szili et al., Antimicrob. Agents Chemother. AAC.00207-19 (2019) doi:10.1128/AAC.00207-19) (FIGS. 10A-10B; Addgene accession: #120418), which transiently disrupts MMR with EcMutL_E32K, and whose RSF1010 origin of replication and m-toluic-acid-based expression system allows the plasmid to be deployed over a broad range of bacterial hosts (Honda et al., Proc. Natl. Acad. Sci. U.S.A. 88, 179-183 (1991); Gawin et al., Microb. Biotechnol. 10, 702 (2017)). These same pORTMAGE-based constructs were used for testing in C. freundii and K. pneumoniae. […] It was found, however, that the efficiency of the plasmid construct was lower in P. aeruginosa than in the enterobacterial species that pORTMAGE was optimized for. Therefore, to increase editing efficiency in P. aeruginosa, i.) ribosomal binding sites (RBS) for PapRecT and EcMutL were optimized, ii.) EcMutL_E32K was replaced with its equivalent homologous mutant from P. aeruginosa (PaMutL_E36K), iii.) the native P. aeruginosa coding sequence for PapRecT was incorporated instead of the E. coli codon-optimized version (FIG. 13).
Virulent strains of P. aeruginosa are a frequent cause of acute infections in healthy individuals, as well as chronic infections in high-risk patients, such as those suffering from cystic fibrosis (Marvig et al., Nat. Genet. 47, 57-64 (2015)). The rate of antibiotic resistance in this species is growing, with strains adapting quickly to all clinically applied antibiotics (AbdulWahab et al., Lung India Off. Organ Indian Chest Soc. 34, 527-531 (2017); Tacconelli et al., Lancet Infect. Dis. 18, 318-327 (2018)). […] By genotyping and characterizing resistant colonies, the Minimum Inhibitory Concentration (MIC) of CIP for various resistant genotypes could be determined (Table 2, FIG. 14). […]

[2] = system: E. coli; assay: Allelic recombination frequency, selective vs non-selective plates; assay type: cell-based, Escherichia coli; conditions: RecT alone
Experimental: Four variants known to enable high genome editing efficiency were selected (Redβ and PapRecT in E. coli, LrpRecT in L. lactis, and MspRecT in M. smegmatis), and tested codon optimized versions of all four in both E. coli (gram-negative), and L. lactis (gram-positive). Genome editing efficiency was measured by introducing oligos encoding known antibiotic resistance mutations, and compared the antibiotic resistant cell counts to the total number of viable cells in the population (FIGS. 17E-17F). […] In L. lactis, LrpRecT was the only functional homolog, and improved oligo incorporation 7,700-fold, while the three other RecT variants were nearly non-functional, improving oligo incorporation less than 7-fold (FIG. 17H). No RecT protein functioned well both in E. coli and L. lactis.
A single colony of E. coli was grown overnight to saturation. In the morning 30 μL of dense culture was inoculated into 3 mL of fresh media and grown for 1 hour. To induce gene expression of the pARC8 vector for recombineering experiments, L-arabinose was added to a final concentration of 0.2% (w/v) and the cells were grown an additional hour. 1 mL of cells were pelleted at 4° C. by centrifugation at 12,000×g for 2.5 minutes and washed twice with 1 mL of ice-cold dH2O. Cells were resuspended in 50 μL ice-cold dH2O containing DNA and transferred to a pre-chilled 0.1 cm electroporation cuvette.
Electrocompetent cells were electroporated with 90-mer oligos at: 1 uM for E. coli, 50 μg for L. lactis, and 10 uM for C. crescentus. 70-mer oligos were used at 1 μg for M. smegmatis. All oligos were obtained from IDT and can be found under “Oligonucleotides for genome editing” in materials and methods. For dsDNA experiments L. lactis was electroporated with 1.5 μg purified linear dsDNA. Cells were electroporated using a Bio-Rad gene pulser set to 25 μF, 200 S2, and 1.8 kV for E. coli, 2.0 kV for L. lactis, and 1.5 kV for C. crescentus and to 1000Ω and 2.5 kV for M. smegmatis. Immediately after electroporation, cells were recovered in fresh media for 3 hours for E. coli, 1 hour for L. lactis, overnight for M. smegmatis and overnight for C. crescentus. L. lactis recovery media was supplemented with MgCl2 and CaCl2) at a concentration of 20 mM and 2 mM, respectively. E. coli recovery media was supplemented with carbenicillin. M. smegmatis recovery media was supplemented with hygromycin. C. crescentus recovery media was supplemented with 0.3% xylose and kanamycin. After recovery, the cells were serial diluted and plated on non-selective vs. selective agar plates to obtain approximately 50-500 CFU/plate. Colonies were counted using a custom script in Fiji, and allelic recombination frequency was calculated by dividing the number of colonies on selective plates, with the number of colonies on non-selective plates.

Molecule | Editing performance in P. aeruginosa [1] | Improvement of oligo incorporation [2] [fold] | Editing performance in P. aeruginosa ([1]; listed as SSAP SEQ ID NO: 24)
Redβ: Redβ SSAP from Enterobacteria phage λ, SEQ ID NO: 474 (protein, Bacteriophage Lambda) MSTALATLAGKLAERVGMDSVDPQELITTLRQTAFKCDASDAQFIALLIVANQYGLNPWTKEIYAFPDKQNGIVPVVGVDGWSRIINENQQFDGMDFEQDNESCTCRIYRKDRNHPICVTEWMDECRREPFKTREGREITGPWQSHPKRMLRHKAMIQCARLAFGFAGIYDKDEAERIVENTAYTAERQPERDITPVNDETMQEINTLLIALDKTWDDDLLPLCSQIFRRDIRASSELTQAEAVKALGFLKQKATEQKVAA | does not work | 1600 | 
PapRecT: SSAP from Pseudomonas aeruginosa, SEQ ID NO: 24, UniParc ID: UPI0001E9E6CB (protein, listed as Pseudomonas aeruginosa) MGTALTPLLTKFATRYEMGTTPEEVANTLKQTCFKGQVNDSQMVALLIVADQYKLNPFTKELYAFPDKNNGIVPVVGVDGWARIINENPQFDGMEFSMDQQGTECTCKIYRKDRSHAISATEYMAECKRNTQPWQSHPRRMLRHKAMIQCARLAFGFAGIYDQDEAERIVERDVTPAEQYEDVSEAICLIKDSPTMEDLQAAFSNAWKAYKTKGARDQLTAAKDQRKKELLDAPIDVEFEETGDDRAA | performed the best | 2700 | functions at high efficiency
